*1 amine or outer side, *2 acyl side, *3 side chain or, on linkers, in order; H or OH if unused. Side-chain parts run from the residue outwards. The star is where a group is joined. C18 diacid = O=C(O)CCCCCCCCCCCCCCCCC(=O)*; γGlu = O=C(O)[C@H](CCC(=O)[*:2])N[*:1]

The target in assay [1] is T1, human amylin-3(a) receptor (human, UniProt P30988 25-474; O60896 24-148).
T1 sequence (looked up) 1: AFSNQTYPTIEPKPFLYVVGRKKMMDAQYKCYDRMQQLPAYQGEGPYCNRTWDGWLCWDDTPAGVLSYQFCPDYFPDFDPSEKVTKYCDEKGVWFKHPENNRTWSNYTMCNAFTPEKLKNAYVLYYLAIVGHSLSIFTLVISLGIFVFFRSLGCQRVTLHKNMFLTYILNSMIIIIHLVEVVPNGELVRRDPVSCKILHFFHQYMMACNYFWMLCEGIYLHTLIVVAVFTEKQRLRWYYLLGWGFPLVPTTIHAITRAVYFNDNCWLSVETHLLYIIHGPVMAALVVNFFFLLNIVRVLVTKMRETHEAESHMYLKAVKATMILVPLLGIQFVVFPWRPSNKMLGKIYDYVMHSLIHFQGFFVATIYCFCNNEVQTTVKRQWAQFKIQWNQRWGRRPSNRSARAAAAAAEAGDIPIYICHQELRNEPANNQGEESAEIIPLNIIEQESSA
T1 sequence (looked up) 2: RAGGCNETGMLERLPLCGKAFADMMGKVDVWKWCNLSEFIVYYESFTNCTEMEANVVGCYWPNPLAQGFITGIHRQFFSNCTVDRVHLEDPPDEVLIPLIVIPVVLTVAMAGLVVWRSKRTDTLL
Kind of assay: cell-based or functional assay.

Assay [2] addresses T2, human calcitonin receptor (a) (human, UniProt P30988 25-474).
T2 sequence (looked up): T1 sequence (looked up) 1
Kind of assay: cell-based or functional assay.

B1: N^1-[(4S)-4-carboxy-4-(17-carboxyheptadecanoylamino)butanoyl]-[Ala1,Ser2,His3,Leu4,Ser5,Ala7,Gln8,Ala10,Glu14, His17, Pro25, Pro28, … (peptide)
peptide: {C18 diacid-γGlu}-ASHLSTAQTARLAEFLHHFGPILPPTDVGSETY-NH2
SMILES: CC[C@H](C)[C@H](NC(=O)[C@@H]1CCCN1C(=O)CNC(=O)[C@H](Cc1ccccc1)NC(=O)[C@H](Cc1c[nH]cn1)NC(=O)[C@H](Cc1c[nH]cn1)NC(=O)[C@H](CC(C)C)NC(=O)[C@H](Cc1ccccc1)NC(=O)[C@H](CCC(=O)O)NC(=O)[C@H](C)NC(=O)[C@H](CC(C)C)NC(=O)[C@H](CCCNC(=N)N)NC(=O)[C@H](C)NC(=O)[C@@H](NC(=O)[C@H](CCC(N)=O)NC(=O)[C@H](C)NC(=O)[C@@H](NC(=O)[C@H](CO)NC(=O)[C@H](CC(C)C)NC(=O)[C@H](Cc1c[nH]cn1)NC(=O)[C@H](CO)NC(=O)[C@H](C)NC(=O)CC[C@H](NC(=O)CCCCCCCCCCCCCCCCC(=O)O)C(=O)O)[C@@H](C)O)[C@@H](C)O)C(=O)N[C@@H](CC(C)C)C(=O)N1CCC[C@H]1C(=O)N1CCC[C@H]1C(=O)N[C@H](C(=O)N[C@@H](CC(=O)O)C(=O)N[C@H](C(=O)NCC(=O)N[C@@H](CO)C(=O)N[C@@H](CCC(=O)O)C(=O)N[C@H](C(=O)N[C@@H](Cc1ccc(O)cc1)C(N)=O)[C@@H](C)O)C(C)C)[C@@H](C)O
As for B1, the “hAmyR3 potency, EC50 (pM); CRE-luciferase reporter in BHK cells” value (“hAmyR3 potency, EC50 (pM)” for short) in assay [1] was 2.11 pM. The “hCalcR potency, EC50 (pM); CRE-luciferase reporter in BHK cells” value (from here on “hCalcR potency, EC50 (pM)”) in assay [2] was 2.78 pM.

B2: N^1-acetyl,N{Epsilon-25}-[(4S)-4-carboxy-4-(17-carboxyheptadecanoylamino)butanoyl]-[Ala1,Ser2,His3,Leu4,Ser5,Ala7,Gln8,Ala10,Glu14,His17,Asp21,Lys25,Pro28,Pro29 … (peptide)
peptide: Ac-ASHLSTAQTARLAEFLHHSSDNFGK([γGlu-C18 diacid])ILPPTDVGSNTP-NH2
SMILES: CC[C@H](C)[C@H](NC(=O)[C@H](CCCCNC(=O)CC[C@H](NC(=O)CCCCCCCCCCCCCCCCC(=O)O)C(=O)O)NC(=O)CNC(=O)[C@H](Cc1ccccc1)NC(=O)[C@H](CC(N)=O)NC(=O)[C@H](CC(=O)O)NC(=O)[C@H](CO)NC(=O)[C@H](CO)NC(=O)[C@H](Cc1c[nH]cn1)NC(=O)[C@H](Cc1c[nH]cn1)NC(=O)[C@H](CC(C)C)NC(=O)[C@H](Cc1ccccc1)NC(=O)[C@H](CCC(=O)O)NC(=O)[C@H](C)NC(=O)[C@H](CC(C)C)NC(=O)[C@H](CCCNC(=N)N)NC(=O)[C@H](C)NC(=O)[C@@H](NC(=O)[C@H](CCC(N)=O)NC(=O)[C@H](C)NC(=O)[C@@H](NC(=O)[C@H](CO)NC(=O)[C@H](CC(C)C)NC(=O)[C@H](Cc1c[nH]cn1)NC(=O)[C@H](CO)NC(=O)[C@H](C)NC(C)=O)[C@@H](C)O)[C@@H](C)O)C(=O)N[C@@H](CC(C)C)C(=O)N1CCC[C@H]1C(=O)N1CCC[C@H]1C(=O)N[C@H](C(=O)N[C@@H](CC(=O)O)C(=O)N[C@H](C(=O)NCC(=O)N[C@@H](CO)C(=O)N[C@@H](CC(N)=O)C(=O)N[C@H](C(=O)N1CCC[C@H]1C(N)=O)[C@@H](C)O)C(C)C)[C@@H](C)O
As to B2, the “hAmyR3 potency, EC50 (pM)” value in assay [1] came to 1.16 pM. Further, the “hCalcR potency, EC50 (pM)” value in assay [2] was 1.16 pM.

B3: N^1-[(4S)-4-carboxy-4-(17-carboxyheptadecanoylamino)butanoyl]-[Ala1,Ser2,His3,Leu4,Ser5,Ala7,Gln8,Ala10,Glu14,His17,Pro25,Pro28,Pro29,Asp31,Glu35,Pro37],des-(19 … (peptide)
peptide: {C18 diacid-γGlu}-ASHLSTAQTARLAEFLHHFGPILPPTDVGSETP-NH2
SMILES: CC[C@H](C)[C@H](NC(=O)[C@@H]1CCCN1C(=O)CNC(=O)[C@H](Cc1ccccc1)NC(=O)[C@H](Cc1c[nH]cn1)NC(=O)[C@H](Cc1c[nH]cn1)NC(=O)[C@H](CC(C)C)NC(=O)[C@H](Cc1ccccc1)NC(=O)[C@H](CCC(=O)O)NC(=O)[C@H](C)NC(=O)[C@H](CC(C)C)NC(=O)[C@H](CCCNC(=N)N)NC(=O)[C@H](C)NC(=O)[C@@H](NC(=O)[C@H](CCC(N)=O)NC(=O)[C@H](C)NC(=O)[C@@H](NC(=O)[C@H](CO)NC(=O)[C@H](CC(C)C)NC(=O)[C@H](Cc1c[nH]cn1)NC(=O)[C@H](CO)NC(=O)[C@H](C)NC(=O)CC[C@H](NC(=O)CCCCCCCCCCCCCCCCC(=O)O)C(=O)O)[C@@H](C)O)[C@@H](C)O)C(=O)N[C@@H](CC(C)C)C(=O)N1CCC[C@H]1C(=O)N1CCC[C@H]1C(=O)N[C@H](C(=O)N[C@@H](CC(=O)O)C(=O)N[C@H](C(=O)NCC(=O)N[C@@H](CO)C(=O)N[C@@H](CCC(=O)O)C(=O)N[C@H](C(=O)N1CCC[C@H]1C(N)=O)[C@@H](C)O)C(C)C)[C@@H](C)O
In the case of B3, in assay [1], the “hAmyR3 potency, EC50 (pM)” value came to 1.06 pM. Besides, in assay [2], the “hCalcR potency, EC50 (pM)” value is 1.76 pM.

The values above are taken from patent publication US20260209293A1 (Novo Nordisk, published 2026).
